Source: the supplement of paper PMC7877785
± gives the uncertainty stated by the source.

Assay: self-splicing fitness, log relative to wild type (ln ratio); higher = more splicing; Tetrahymena group I intron in knt gene, E. coli kanamycin selection, DiMSum; sequences stand for … in CUCUCU…GGAGGGAAAAGUUAUCAGGCAUGCACCUGGUAGCUAGUCUUUAAACCAAUAGAUUGCAUCGGUUUAAAAGGCAAGACCGUCAAAUUGCGGGAAAGGGGUCAACAGCCGUUCAGUACCAAGUCUCAGGGGAAACUUUGAGAUGGCCUUGCAAAGGGUAUGGUAAUAAGCUGACGGACAUGGUCCUAACCACGCAGCCAAGUCCUAAGUCAACAGAUCUUCUGUUGAUAUGGAUGCAGUUCACAGACUAAAUGUCGGUCGGGGAAGAUGUAUUCUUCUCAUAAGAUAUAGUCGGACCUCUCCUUAAUGGGAGCUAGCGGAUGAAGUGAUGCAACACUGGAGCCGCUGGGAACUAAUUUGUAUGCGAAAGUAUAUUGAUUAGUUUUGGAGUACUCGUGGUCG
Summary of the method: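 A randomised library covering all eight P1ex-region intron nucleotides was built with the intron in the knt kanamycin-resistance gene on pET-22b(+) and held in E. coli BL21(DE3). Cells were grown overnight at 37°C or 30°C on LB agar, with or without 25 μg/mL kanamycin, plus 100 μg/mL carbenicillin, 50 μM IPTG and 0.2% rhamnose, and pooled colonies were amplicon-sequenced on an Illumina HiSeq 2500. DiMSum fitness is the error-weighted combination of wild-type-normalised replicate fold changes, kanamycin versus none.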

Sequence	self-splicing fitness (ln) (30 °C)	self-splicing fitness (ln) (37 °C)
ACUUAGCAAUAUUACGUUUC	-4.28 ± 0.31	-2.78 ± 0.27
CCUCAGCAAUAUUACGACCC	-2.75 ± 0.38	-2.41 ± 0.49
GCCCAGCAAUAUUACGAUGU	0.0553 ± 0.048	0.51 ± 0.069
UAAAAGCAAUAUUACGAACC	-3.12 ± 0.36	-1.25 ± 0.45
CUAUAGCAAUAUUACGUCGC	-3.75 ± 0.24	–
ACCCAGCAAUAUUACGUACU	-1.12 ± 0.059	-0.926 ± 0.08
CCUUAGCAAUAUUACGUGAG	-1.35 ± 0.068	0.0439 ± 0.088
GAUUAGCAAUAUUACGUUCA	-0.941 ± 0.084	-0.497 ± 0.088
AAGAAGCAAUAUUACGUUGG	-3.25 ± 0.18	-2.71 ± 0.23
UUGUAGCAAUAUUACGCGAC	–	-0.429 ± 0.37
CAAUAGCAAUAUUACGGAAU	-3.67 ± 0.35	-3.11 ± 0.33
UUGAAGCAAUAUUACGGUCA	-0.522 ± 0.075	-0.262 ± 0.099
GGUGAGCAAUAUUACGUGCU	-1.66 ± 0.18	-1.74 ± 0.37
GUACAGCAAUAUUACGAUGA	-1.87 ± 0.097	-0.889 ± 0.11
AUGCAGCAAUAUUACGAUAG	-2.99 ± 0.19	-2.57 ± 0.22
UAUUAGCAAUAUUACGCUCA	0.0548 ± 0.15	0.336 ± 0.17
GGACAGCAAUAUUACGGGUU	-3.03 ± 0.11	-2.46 ± 0.21
AUCUAGCAAUAUUACGAACA	-1.53 ± 0.14	-0.645 ± 0.12
CACGAGCAAUAUUACGCUGU	-3.55 ± 0.18	-3.31 ± 0.18
UAAGAGCAAUAUUACGUGUA	-2.36 ± 0.36	-2.21 ± 0.27
GCCCAGCAAUAUUACGCGUC	-1.17 ± 0.067	-0.202 ± 0.075
UCGUAGCAAUAUUACGCCUG	-0.246 ± 0.12	0.322 ± 0.13
CUGAAGCAAUAUUACGACCU	-3.63 ± 0.4	-3.1 ± 0.18
UCUCAGCAAUAUUACGAGGC	–	-1.54 ± 0.36
UAGGAGCAAUAUUACGCAUG	-1.64 ± 0.2	0.135 ± 0.15

Sequence	self-splicing fitness (ln) (30 °C)	self-splicing fitness (ln) (37 °C)
UUUGAGCAAUAUUACGGAGA	–	1.09 ± 0.29
GGUGAGCAAUAUUACGCAGC	–	-1.93 ± 0.34
CCCAAGCAAUAUUACGAAGU	-2.98 ± 0.15	-2.19 ± 0.18
AUAGAGCAAUAUUACGCUGC	-2.86 ± 0.29	-1.05 ± 0.2
UUGGAGCAAUAUUACGAAUC	–	-2.58 ± 0.5
ACCAAGCAAUAUUACGAUUC	-1.48 ± 0.1	-1.04 ± 0.14
GUAGAGCAAUAUUACGUAAA	-4.18 ± 0.36	-1.4 ± 0.27
CCGUAGCAAUAUUACGCCGA	-2.64 ± 0.22	-1.99 ± 0.19
CCCGAGCAAUAUUACGGCUC	-4.18 ± 0.34	-2.21 ± 0.23
GGCCAGCAAUAUUACGCGAA	-0.824 ± 0.12	-1.41 ± 0.14
AAAGAGCAAUAUUACGAACG	-3.87 ± 0.21	-1.74 ± 0.13
GAUAAGCAAUAUUACGUGGG	-3.77 ± 0.23	-2.27 ± 0.25
GACCAGCAAUAUUACGAAGU	-1.45 ± 0.09	-0.269 ± 0.1
GGAUAGCAAUAUUACGCACU	-2.36 ± 0.15	-1.05 ± 0.15
CUCUAGCAAUAUUACGUGAG	-3.45 ± 0.18	-2.12 ± 0.19
UGCCAGCAAUAUUACGUCCG	-0.88 ± 0.073	0.0267 ± 0.11
CGAGAGCAAUAUUACGCUAA	-2.68 ± 0.33	–
UCGUAGCAAUAUUACGGAGG	-2.53 ± 0.27	-3.14 ± 0.3
UCAGAGCAAUAUUACGAGUA	-3.89 ± 0.46	-1.01 ± 0.14
CUGGAGCAAUAUUACGCCUU	–	-1.6 ± 0.43
AGAUAGCAAUAUUACGUUCA	-0.78 ± 0.13	-0.5 ± 0.15
CCAUAGCAAUAUUACGUCGG	-3.15 ± 0.19	-2.02 ± 0.29
GUAAAGCAAUAUUACGCCUC	-0.782 ± 0.12	0.463 ± 0.16
UGAUAGCAAUAUUACGACUU	-0.653 ± 0.17	-0.431 ± 0.12
UCCCAGCAAUAUUACGUCCU	-3.36 ± 0.18	-1.48 ± 0.15
